For one molecule, Kd results are on record in paper PMC10325834, “Characteristics of Mycobacterium tuberculosis PtpA interaction and activity on the alpha subunit of human mitochondrial trifunctional protein, a key enzyme of lipid metabolism” (Frontiers in Cellular and Infection Microbiology, 2023).

The assay has as its target T1, human mitochondrial trifunctional protein (hTFP α/β) immunopurified from macrophages (human (endogenous in macrophages), UniProt P40939-1 37-763; P55084 34-474, phosphotyrosine: 21% of the immunopurified hTFP is phosphorylated on Tyr (sites not identified)).
T1 construct: also called immunopurified hTFP; hTFPα from macrophages; source: endogenous, macrophage extract; immunoprecipitated with anti-TFP monoclonal antibody (ab110302) on beads, eluted with 50 mM citrate pH 2.6
Nature of the assay: SPR. Particulars: both partners purified.

T1 sequence (P40939 37-763, chain 1 of 2): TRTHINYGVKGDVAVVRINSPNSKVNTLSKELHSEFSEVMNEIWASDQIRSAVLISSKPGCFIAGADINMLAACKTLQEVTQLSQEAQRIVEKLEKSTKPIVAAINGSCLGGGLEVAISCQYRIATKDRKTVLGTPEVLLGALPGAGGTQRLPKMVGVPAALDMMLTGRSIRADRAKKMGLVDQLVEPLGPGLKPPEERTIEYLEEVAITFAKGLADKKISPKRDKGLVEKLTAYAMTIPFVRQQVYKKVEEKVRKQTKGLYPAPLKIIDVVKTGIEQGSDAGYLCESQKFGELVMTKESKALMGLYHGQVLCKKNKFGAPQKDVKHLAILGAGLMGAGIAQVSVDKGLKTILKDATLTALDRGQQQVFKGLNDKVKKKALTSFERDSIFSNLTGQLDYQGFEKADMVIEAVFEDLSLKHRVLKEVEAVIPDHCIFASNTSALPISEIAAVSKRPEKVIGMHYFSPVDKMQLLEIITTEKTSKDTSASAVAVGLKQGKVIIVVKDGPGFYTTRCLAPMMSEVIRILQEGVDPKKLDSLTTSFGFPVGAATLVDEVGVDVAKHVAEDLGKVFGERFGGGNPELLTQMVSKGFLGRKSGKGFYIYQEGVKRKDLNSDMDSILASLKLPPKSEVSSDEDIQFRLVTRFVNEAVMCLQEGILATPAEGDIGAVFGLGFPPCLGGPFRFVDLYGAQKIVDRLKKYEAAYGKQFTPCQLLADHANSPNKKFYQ
T1 sequence (P55084 34-474, chain 2 of 2): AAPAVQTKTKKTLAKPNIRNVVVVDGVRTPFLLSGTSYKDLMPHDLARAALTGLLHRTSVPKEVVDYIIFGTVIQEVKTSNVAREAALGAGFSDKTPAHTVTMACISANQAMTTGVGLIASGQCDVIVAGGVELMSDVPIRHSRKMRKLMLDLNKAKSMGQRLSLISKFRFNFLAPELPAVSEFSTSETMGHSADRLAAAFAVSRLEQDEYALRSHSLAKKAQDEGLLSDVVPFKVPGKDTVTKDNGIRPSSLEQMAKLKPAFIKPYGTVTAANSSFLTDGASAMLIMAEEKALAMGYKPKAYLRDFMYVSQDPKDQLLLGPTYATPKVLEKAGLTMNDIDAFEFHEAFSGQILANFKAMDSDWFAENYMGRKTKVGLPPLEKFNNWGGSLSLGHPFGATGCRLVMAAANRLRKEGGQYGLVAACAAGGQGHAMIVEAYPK

B1: Mycobacterium tuberculosis PtpA, recombinant wild type (enzyme)
chain: MSDPLHVTFVCTGNICRSPMAEKMFAQQLRHRGLGDAVRVTSAGTGNWHVGSCADERAAGVLRAHGYPTDHRAAQVGTEHLAADLLVALDRNHARLLRQLGVEAARVRMLRSFDPRSGTHALDVEDPYYGDHSDFEEVFAVIESALPGLHDWVDERLARNGPS
notes: also called rPtpA; PtpA-wt
What is called Kd is the free concentration of one partner at which half of the binding sites on the other are occupied at equilibrium, for simple one-to-one binding. Higher therefore signals lower affinity. Regarding B1, binding was put at a Kd of 310 nM.
